We go through seven sequences from the supplement of paper PMC11246515.

± gives the standard deviation of the averaged measurements. Bounds are passed on as bounds.

The series is described as follows: total protein half-life in vivo (active degradation + dilution); higher = more stable protein.
[1] abbreviates: E. coli NCM3722 delta-clpP delta-lon delta-hslV, growth: N-lim chemostat, doubling time 6 h.
Where [2] appears, read: E. coli NCM3722 delta-clpP, growth: N-lim chemostat, doubling time 6 h.
Where [3] appears, read: E. coli NCM3722 delta-hslV, growth: N-lim chemostat, doubling time 6 h.
Setting [4] is: E. coli NCM3722 delta-lon, growth: N-lim chemostat, doubling time 6 h.
The mark [5] stands for this setting: E. coli NCM3722 delta-smpB, growth: N-lim chemostat, doubling time 6 h.
Setting [6] is: wild type E. coli NCM3722, growth: C-lim chemostat, doubling time 3 h.
Where [7] appears, read: wild type E. coli NCM3722, growth: C-lim chemostat, doubling time 6 h.
Where [8] appears, read: wild type E. coli NCM3722, growth: C-lim chemostat, doubling time 12 h.
Where [9] appears, read: wild type E. coli NCM3722, growth: N-lim chemostat, doubling time 6 h.
Setting [10] is: wild type E. coli NCM3722, growth: N-lim chemostat, doubling time 12 h.
The mark [11] stands for this setting: wild type E. coli NCM3722, growth: P-lim chemostat, doubling time 6 h.
The mark [12] stands for this setting: wild type E. coli NCM3722, growth: P-lim chemostat, doubling time 12 h.

On to “MKRAVITGLGIVSSIGNNQQEVLASLREGRSGITFSQELKDSGMRSHVWGNVKLDTTGLIDRKVVRFMSDASIYAFLSMEQAIADAGLSPEAYQNNPRVGLIAGSGGGSPRFQVFGADAMRGPRGLKAVGPYVVTKAMASGVSACLATPFKIHGVNYSISSACATSAHCIGNAVEQIQLGKQDIVFAGGGEELCWEMACEFDAMGALSTKYNDTPEKASRTYDAHRDGFVIAGGGGMVVVEELEHALARGAHIYAEIVGYGATSDGADMVAPSGEGAVRCMKMAMHGVDTPIDYLNSHGTSTPVGDVKELAAIREVFGDKSPAISATKAMTGHSLGAAGVQEAIYSLLMLEHGFIAPSINIEELDEQAAGLNIVTETTDRELTTVMSNSFGFGGTNATLVMRKLKD [P0A953]”, for which the “total protein half-life in vivo” value came to 5.27 ± 0.45 h under setting [1]; 5.06 ± 0.069 h under setting [2]; 4.81 ± 0.16 h under setting [3]; 4.98 ± 0.26 h under setting [4]; 4.81 ± 0.049 h under setting [5]; 2.99 ± 0.039 h under setting [6]. The “total protein half-life in vivo” value turned out to be 6.06 ± 0.36 h under setting [7]; 10.8 ± 0.81 h under setting [8]; 4.78 ± 0.11 h under setting [9]; 8.39 ± 0.45 h under setting [10]; 5.89 ± 0.25 h under setting [11]; 12.3 ± 0.21 h under setting [12].
In the case of “MKLVTVIIKPFKLEDVREALSSIGIQGLTVTEVKGFGRQKGHAELYRGAEYSVNFLPKVKIDVAIADDQLDEVIDIVSKAAYTGKIGDGKIFVAELQRVIRIRTGEADEAAL [P0AC55]”, the “total protein half-life in vivo” value under setting [2] worked out at 5.2 ± 0.45 h; the “total protein half-life in vivo” value under setting [3] was found to be 5.45 ± 0.14 h; the “total protein half-life in vivo” value under setting [4] was 5.044 ± 0.034 h; the “total protein half-life in vivo” value under setting [5] was determined as 4.83 ± 0.068 h; the “total protein half-life in vivo” value under setting [6] is > 4 h; the “total protein half-life in vivo” value under setting [7] was determined as 7.02 h. Also, the “total protein half-life in vivo” value by setting is: under setting [9], 5.43 ± 0.42 h; under setting [10], 8.82 ± 0.72 h; under setting [12], 13.6 ± 2.6 h.
Consider “MRKIKGLRWYMIALVTLGTVLGYLTRNTVAAAAPTLMEELNISTQQYSYIIAAYSAAYTVMQPVAGYVLDVLGTKIGYAMFAVLWAVFCGATALAGSWGGLAVARGAVGAAEAAMIPAGLKASSEWFPAKERSIAVGYFNVGSSIGAMIAPPLVVWAIVMHSWQMAFIISGALSFIWAMAWLIFYKHPRDQKHLTDEERDYIINGQEAQHQVSTAKKMSVGQILRNRQFWGIALPRFLAEPAWGTFNAWIPLFMFKVYGFNLKEIAMFAWMPMLFADLGCILGGYLPPLFQRWFGVNLIVSRKMVVTLGAVLMIGPGMIGLFTNPYVAIMLLCIGGFAHQALSGALITLSSDVFGRNEVATANGLTGMSAWLASTLFALVVGALADTIGFSPLFAVLAVFDLLGALVIWTVLQNKPAIEVAQETHNDPAPQH [P0AA78]”, for which the “total protein half-life in vivo” value reads like this: under setting [7], 5.93 ± 0.18 h; under setting [8], 9.36 ± 0.82 h.
With “MKSMNIAASSELVSRLSSHRRVVALGDTDFTDVAAVVITAADSRSGILALLKRTGFHLPVFLYSEHAVELPAGVTAVINGNEQQWLELESAACQYEENLLPPFYDTLTQYVEMGNSTFACPGHQHGAFFKKHPAGRHFYDFFGENVFRADMCNADVKLGDLLIHEGSAKDAQKFAAKVFHADKTYFVLNGTSAANKVVTNALLTRGDLVLFDRNNHKSNHHGALIQAGATPVYLEASRNPFGFIGGIDAHCFNEEYLRQQIRDVAPEKADLPRPYRLAIIQLGTYDGTVYNARQVIDTVGHLCDYILFDSAWVGYEQFIPMMADSSPLLLELNENDPGIFVTQSVHKQQAGFSQTSQIHKKDNHIRGQARFCPHKRLNNAFMLHASTSPFYPLFAALDVNAKIHEGESGRRLWAECVEIGIEARKAILARCKLFRPFIPPVVDGKLWQDYPTSVLASDRRFFSFEPGAKWHGFEGYAADQYFVDPCKLLLTTPGIDAETGEYSDFGVPATILAHYLRENGIVPEKCDLNSILFLLTPAESHEKLAQLVAMLAQFEQHIEDDSPLVEVLPSVYNKYPVRYRDYTLRQLCQEMHDLYVSFDVKDLQKAMFRQQSFPSVVMNPQDAHSAYIRGDVELVRIRDAEGRIAAEGALPYPPGVLCVVPGEVWGGAVQRYFLALEEGVNLLPGFSPELQGVYSETDADGVKRLYGYVLK”, the “total protein half-life in vivo” value under setting [1] turned out to be 4.97 ± 0.45 h; the “total protein half-life in vivo” value under setting [2] was 4.68 ± 0.86 h; the “total protein half-life in vivo” value under setting [3] worked out at 4.28 ± 0.14 h; the “total protein half-life in vivo” value under setting [4] stood at 4.69 ± 0.36 h; the “total protein half-life in vivo” value under setting [5] was 4.34 ± 0.089 h; the “total protein half-life in vivo” value under setting [7] stood at 5.18 ± 0.13 h. The “total protein half-life in vivo” value came to 8.46 ± 1.1 h under setting [8]; 4.44 ± 0.13 h under setting [9]; 8.46 ± 0.59 h under setting [10]; 6.15 ± 0.14 h under setting [11]; 12.3 ± 1.8 h under setting [12].
With “MTLETAFMLPVQDAQHSFRRLLKAMSEPGVIVALHQLKRGWQPLNIATTSVLLTLADNDTPVWLSTPLNNDIVNQSLRFHTNAPLVSQPEQATFAVTDEAISSEQLNALSTGTAVAPEAGATLILQVASLSGGRMLRLTGAGIAEERMIAPQLPECILHELTERPHPFPLGIDLILTCGERLLAIPRTTHVEVC”, the “total protein half-life in vivo” value under setting [11] is 1.74 ± 0.51 h and the “total protein half-life in vivo” value under setting [12] was determined as 3.12 ± 1.3 h.
For “MEKVMLSFDKVSAHYGKIQALHEVSLHINQGEIVTLIGANGAGKTTLLGTLCGDPRATSGRIVFDDKDITDWQTAKIMREAVAIVPEGRRVFSRMTVEENLAMGGFFAERDQFQERIKWVYELFPRLHERRIQRAGTMSGGEQQMLAIGRALMSNPRLLLLDEPSLGLAPIIIQQIFDTIEQLREQGMTIFLVEQNANQALKLADRGYVLENGHVVLSDTGDALLANEAVRSAYLGG”, the “total protein half-life in vivo” value under setting [1] came to 5.87 ± 0.53 h; the “total protein half-life in vivo” value under setting [2] amounted to 6.13 ± 0.64 h; the “total protein half-life in vivo” value under setting [3] was 5.66 ± 0.54 h; the “total protein half-life in vivo” value under setting [4] turned out to be 6.44 ± 0.9 h; the “total protein half-life in vivo” value under setting [5] was 5.58 ± 0.61 h; the “total protein half-life in vivo” value under setting [6] was 3.07 ± 0.055 h. In addition, the “total protein half-life in vivo” value was 5.86 ± 0.22 h under setting [7]; 12.4 ± 0.52 h under setting [8]; 5.51 ± 0.47 h under setting [9]; 10.1 ± 1.1 h under setting [10]; 5.94 ± 0.59 h under setting [11]; 13.5 ± 0.69 h under setting [12].
Consider “MTMNITSKQMEITPAIRQHVADRLAKLEKWQTHLINPHIILSKEPQGFVADATINTPNGVLVASGKHEDMYTAINELINKLERQLNKLQHKGEARRAATSVKDANFVEEVEEE [P0AD49]”, for which the “total protein half-life in vivo” value under setting [1] came to 6.33 ± 1.1 h; the “total protein half-life in vivo” value under setting [2] is 4.87 h; the “total protein half-life in vivo” value under setting [3] was 1.49 h; the “total protein half-life in vivo” value under setting [5] turned out to be 0.687 h; the “total protein half-life in vivo” value under setting [6] was found to be 0.852 ± 0.17 h; the “total protein half-life in vivo” value under setting [7] was 2.32 h. Further, the “total protein half-life in vivo” value by setting is: under setting [8], 2.47 ± 0.42 h; under setting [10], 1.07 h; under setting [12], 1.59 h.
